Test: label from the status in PepcDB records

| Sequence | protein production |
| --- | --- |
| MVQEPTQDHLIGTTVDGRYTVRSRLASGGMSTVYLATDQRLERDVALKVLHPHLANDPTFLERLSREAKAAASLSHPHIVGVLDQGEDGTIAYLVMEYVKGHTLRDTLNEQGALQPRLALALIDPVIEGLAAAHRSGLIHRDVKPENVLIADDGRIKVGDFGLARAISANTSTGALIGTVAYLAPELVLGQPADARSDIYSAGIMLYEMLTGKQPYAGDSPIQVAYQHVNAAVGRPSDAAPGLAEDLDELVQWCTAVDAENRPVDGTALLTELRHIRTTLTDEDLDRRQAPSQPPGSPAAATAAAALGGPGGNPTEAIPATASPTEMISHQSNPTTIMAAAGSGRPQTAAVGAVNHEVVRQPGKRELKRLERQEIKDRARAAATPSRPLREGNPRRRGIIWTIVIVILATLAASAGWFFGMGPGSPGTVPDVKNKTVAEAQQLLRTAGFQSEPKDVFDDDILAGLAVGTEPESGAEVRKFQPITLFVSKGAQLFALPTLTGGSLDEAKTALNAAEMALGNVTQAFDEKVPAGVVISQDPAKGTEVRHGTPVSLVVSKGPQPIPVPDVRGLAQDAAVKALQDAGLTAVIAPETVNDKTVPKGAVVSQVPANGTLVRGEAVTLTVSKGPKLVKVPSFIGKQADEAEKELKKLGFKVQVNKVLGGFFGTVRDQNPVNTEIPEDSVVTLTVV | failed |
| MQPLLRTAGFSLLLLAASCGVGAQPEPQNSRLTAIKMDGELPARAAIAGLFAELDFQQATQSYLWALPLVSYAQWQGEFRDKLHAGNGDLMVLESYEDKLGVITANATTPYILGFVDLNQTGPMVVELPPGPTAGGVGDFWQRAITDMGQTGPDQGKGGKYLVLPPGHPEPSDADQYYLAKSQTMNVLVGFRVLDPDPAKGKALVQQFKMYPYAQRATPPATRLLSPGGKPWSGTQPRGMAYWERLHQIIQQEPVNERDRFYMAMLASLGIEKDKPFNPNEHQRQALEQGARMGELIAQANTFAKRFADAQYWPDRQWDKVLNIADPSQRVAYYDQLWERSAWFYEAVTNTKGMVSKTPGLGQTYLGAYTDHNGQWLDGGKHYRLHLGSNPPARQFWSLTVYDSASRCLIDNPQRKADLSSRQDLKKNPDGSLDLYFGPSAPKGLESNWVQTLPGKHWFSYFRLYAPTEAYFDKRWKLDDITLVQ | failed |
| MSSRMARLGLSTYRLAGTVASPVVGLYLTYRTAKGKEDRARRLERFGYPSANRPQGPLVWFHAASVGETNAVIPLIREIRRRDIHVILTTGTITSARLAAERLGQEAIHQYVPLDLKPSVSRFLDYWQPDCAIIAESEIWPATVLELGRRRIPQILVNARMSDRSFARWRRRQSIAEALFENLALVIAQSDVDAERFRDLGAVPVITSGNLKVDTDAPPYDSAVFARYKKQIGDRKTWAAISTFDGEENAAGIVHRVLKERDRQLTIIVPRHPERSDEIEAALVKQGLKVARRTRDDVLSADVDIFLGDTIGEMGLYLRLTEIAFVGRSLFAEGGQNPLEPAMLGCAILSGGNVQNFREAYQKLARSGSARMVRDTEMLAKGVHYLLTNDEARRNMIEAGVATVHEMRGALSATVKGLEPYINPLTVKARLLPKAAAQV | failed |
| MILLSVHDSFLLDHNLPSACDKVFERLLDVTNSSFGFIATLQEDEDGQSLYLPAISNLAWDEETLTWYRHQRRTHGGLRLRKLDNLFGHVVTHNTVVCTNSLLRQKAGRDLPPIHPALHSLLGIPITHNGKTVGMIALANRREGYDQTMIELEHHHHHH | failed |
| MFSAKKRDKCIGEMSEKQLDLLVIGGGITGAGIALDAQVRGIQTGLVEMNDFASGTSSRSTKLVHGGLRYLKQFEIKLVAEVGKERAIVYENAPHVTTPEWMLLPIFKDGTFGKFSTSLGLKVYDYLADVRKDERRYMLNEKQTLEKEPLLRKENLKGGGIYVEYRTDDARLTLEIMKEAVARGAVALNYMKVESFIYDQGKVVGVVAKDRLTDTTHTIYAKKVVNAAGPWVDTLREKDRSKHGKYLKLSKGVHLVVDQSRFPLRQAVYFDTESDGRMIFAIPREGKTYIGTTDTFYDKDIASPRMTVEDRDYILAAANYMFPSLNLTADDVESSWAGLRPLIHEEGKKASEISRKDEIFFSDSGLISIAGGKLTGYRKMAERTVDAVAQGLNVNEPCTTAAIRLSGGLAEGAQGFPRFLDEASRKGAKLGFDADEVRRLAKLYGSNVDHVLNYAYEGKEEAEHYGLPALLLGQLQYGVEQEMVATPLDFFVRRTGALFFNISLVHQWKEAVLRWMAEEFSWTEEEKTRFQNELETELKMAVDPLFQVEPTTVLEHHHHHH | not failed |
| SAQGLIEVERKFAPGPDTEERLQELGATLEHRVTFRDTYYDTSELSLMLSDHWLRQREGSGWELKCPGVTGVSGPHNEYVEVTSEAAIVAQLFELLGSGEQKPAGVAAVLGSLKLQEVASFITTRSSWKLALSGAHGQEPQLTIDLDSADFGYAVGEVEAMVHEKAEVPAALEKIITVSSMLGVPAQEEAPAKLMVYLQRFRPLDYQRLLEAASSGEATGDSAS | not failed |
| MAPDQAKPAPFRDQFHRVLGVIRRGKLLILACVLLVVAPTIVFLQQATPRYTANAAVLIEAPDATDSLLDRSDMSRTRLNDLMITTEAEVLGSTPLARRVIDKLGLDQDPEFNARLRKPTAFQRVTFWLNPINWIPDGWRAGRKDEATMTPKVREELQRARVTATFLGRLSVKPKRRSFVIDLEFTATSREKSALIVNTLADLYVFDRLEAGFDETKRVNEWLAQRLESLRGDVALAEAAVETYRAENGLRPVGERQGTVANQQLTELNSRLVLARADLAQKQARLDQVRSLSRGGGVATASDVLQSSLIQQLRQREAEVRSALSEAEKTYGERHPKIIGMRADLGQLQSSIGGEIGKIASSAEGDVEIAAIGVRTLEREIVGLRQEGDVQGGAIVRLRELERQADSSRSLYEAFLSRFKRNAEQEQIQRANARLLSPADIPASPSYPRKIPILLVMMVVGFGLGIGLVFLVEGLDGTVHSTEELEALVGLPPLAVIPVVRGRGGGAVVLARPRAPIAHAFRNLRTALTLNGEETRRRIVMVSSSVPKEGKSFVSLGLALTYARAGERVLLIDADVHRSSLAATIGIDGTRGLAQVLRGEATLDQVVTRPPGMDLDFLAAGEASAQEELFDASTLGALLSEPASRYDRIIIDTAPVLAVADARIVAGVADQVIYLVRWGSTQQTAVRNGIKLLRDVRAPLAGMVLSQVDVRRHAVYGYGDYGASYGRYQEYYAE | failed |
| MGDSPMNKNAKPDLAGTAALALDKGDPLLTPASVSQRDDARSQQPLGREALDVFVAWSIIGIFLIMSMAVIHELSMILMPVVMAVVVGMILGISAEKLASYGIPGAGVALILSTLVAAVIFFVVNSLIDPVSQLATEGPALIERSIDRFLPYVQNLRWLNISAATFSMGSMSMESLISRSGEIITLLGANVTPAIVQGLIFLAALLMFLYSRLRLRKALIMVFPARHQRLRTIRIIGSVEKVLGTYFATASLIYAALGVTMIVIAYVGGLSMPLLWGLFAFLSSFVPFLGITLMTISLTIAGIIAHDNMILALLPAGVFFTIHLLMENLAFPAVVGRNMEINPFLVFVMIIFWTWMWGAAGAMLALPLSLIAMTVTRELFPSRRVVPKLPD | failed |
| MCDRHQKLIRATDKPNFFGIDHYGFPEAGEHPADPPGYYPEYFSSERFQRLGYHVEELRGGFYWVTSGGYDAAFVVTSDGVVAIDAPPTIGENMLAAIEDVTDKPVTHLIYSHWHTDHIGAASVFGPNVEIVAHDITKELLERFPDPNRPVPTVTFDKDHLLVVGGVTLELSYKGENHCPGNIFIYAPAQKVLTVIDIVSPGSATFMHCDASQNITGWYEAQKQLMEYEFDFLVAGHHMKYGTPETVAASIEYFQDVLDGAQAAVDRFSRSDALVSILEGAGWDQVFSGTENWINSMANFATKYVLEKKSSNGQLWSERLAGVTTQTKYHAYTVLESIRLERPRPNYRLRGENPPPFLT | failed |
| MKYSTRADIQDYLKQGYQLVSDNFVTGTTFDTDDRTDQIYEVHFKHGIESDFEKRNVKETVHYRYDNGQLARPIYQNVLNFERKVETDQVTKQRNYKNWQAVDGTSFKRVVSPYIKGYTAVPKLIDEITNINENHKNIEKIVVYKANDEKAQVKYFDDTTGRKLSEQFLHGAYGSRDVYRTANTIQHYKQMGYELVSDDYPKNGAKYSQDKLVRVYEIHLKHKIIEQSEKSTVKEVIHYLYDNGHLAKPVYESVLNFSRMVGIDQVTGKKYYGIWQATEGTSFKKVVSPKIEGYTALPKVVVAINNINVNHANIEKIVVYKANDEKARVKYFDDTIGRKLSEQLLHGVYGSRDVYRTANTIQRYKQMGYELVSDNYPKNGANYSQDKLVRVYEIHLKHKIVKQPEKSTVKEVIHYLYDNGQPAGPIYENELDFKRIIEFDQVTKQKRYGNWQAIDGTYFKKVDSPKIIGYTPTLEAIETINNIDGSHKDIEETVVYKINDEKAQVTYYDDTTRKKLSEKGLNGAYRTRDSYRTVDAINQYKWAGYELVSDDYPQNGVFYDQDKLIKMYEVHLKHGEKMDFEQRAVKEVIYYQYDDGQLAEPTYKNKLSFRRIVKIDQVTGQKYYGVWQAVDGTNFRSVVSPIIEGYTPIPEIVRAINNINSYHQDVEKTVVYQANKQNEVVGGNSPKKFKQIKIILVRVIHPNREVRINTEKSHTKK | failed |
| MDTQTVAAYDTLAETFAREWREQPAPDDLYALLRRMFKAGGDTVDIGCGAGREVAWLNANGYPAVGYDASAGLLEAARTQYPGLSFRRAMLPELVGIAEGAFDNVVCETVIMHLPPAQIGAAVRRLLALLRPGGTLYLSWRVTPEADQRDGRGRLYTAFDAAGVREALAGAQVLFDEVAVSQSSGLEHHHHHH | not failed |
| MMSDLPRDLLEERLSRVPVKSLREARFTCKNWKTLSKKRSFTKKHLAQEATSRESEFKVVMVLHCKVYLTSINLRGIHNGFDPSINRQAKLVSLNGTDQIDISEVYHCDGLLLCISKDYTRVVVWNPYRSQTLWLKPSSPDHRMDWYICAIGYEKRKSSLRYKVLRFVDFAEEEFVEYEIYELKSNSWRVLDVTSDWEVEFYARGVSLKGNTYWFATDKFPEISSNLIHSVYFLLCFNFTSERFGPRLHLPCYPMDVDTVSLSSVREEQLAVLFQRKDNLHMEIWVTTKIEPEEVMWSKLFLAVDMQPLTDFKFGIADASFIIDEEKKVVVVFAKDKDVMYPTHNTAYIIGEDGYYKEVDLGKTTDKIRDPLVCSYVPSSAQIKQGGKRKKKGKLITD | failed |
| MPDATLSNTSLGRLAWLWLTVLIVAVDQVSKYYFENALSLYQQIIVIPDYFSWTLAYNTGAAFSFLADGAGWQRWLFALIAVVVSAVLVVWLKRLGRDDTWLAIALALVLGGALGNLYDRVVLGHVIDFILVHWQNRWYFPAFNVADSAITVGAIMLALDMFKSKKTGETVND | failed |
| SDCDIEGKDGKQYESVLMVSIDQLLDSMKEIGSNCLNNEFNFFKRHICDANKEGMFLFRAARKLRQFLKMNSTGDFDLHLLKVSEGTTILLNCTGQVKGRKPAALGEAQPTKSLEENKSLKEQKKLNDLCFLKRLLQEIKTCWNKILMGTKEH | not failed |
| PSNAMKQAWLQISQDNKLMSCNDTSKANALLDMVTQGLNPAKNQCYFIPYGNKMQLQRSYHGNVMMLKRDAGAQDVVAQVIYKGDTFKQEMGETGRIKAIKHEQDFFNIDKENIIGAYCTIVFNDGRDNYIEVMTIEQIKQAWMQSSMIKDEKALQNSKTHNNFKEEMAKKTVINRAAKRYINTSTDSNLFKYAQESEQRQRKEVLDAEVEENANQE | not failed |
| QKVQDAAMQEDPKALDEVVIVARQNINELDIRAKSGVVQRVDVERLNSKPMIDMSLALQGAVPGLIITNTGDLGSKPEIRIRGNSSFRKGDMANEPLYVMDGKVISSDAFMTLNPADIQEIKVLKDAVACALYGIKAANGVIEITSQRGNPDG | failed |
| MIDPLASPGSAPLIVIAGPTASGKSALALRVARRFNGVVINADSMQVYRDLRILSARPSVEDEAAAPHALYGVLDGAEVCSVGRWLALADGAVAAARAAGRLPILCGGTGLYLKAALEGLASVPEVAPEVRAEARELLAALGPAALHAKLAELDRAMAERLRPSDAQRIARAYEVVRGTGRSLMDWWSDPVATPALPGRPLLLVIDPPRAAQRAACDARLLAMVAAGALDELALLLARRLDPALPVMRAVGVPELARTLRGEVGLAEAVERAQGATRRYAKRQGTWIRTQLRPDRVLSESLVTQLSESQLTDIDNFLYAFLLTGAS | failed |

From a protein production outcome set (Wang et al. 2014)
